Measured values from IntAct's records for PubMed 26416881.

B1: MICOS complex subunit MIC19 (Saccharomyces cerevisiae), P43594 (parent)
chain: MGSNTSKVGAGAEKQQVYTPLTQIDFSQSLVSQLDSSKESDYVTKQNAEKFIEKKVSQRLSNLEVETLKKFEDTLNNSLLSDDDKDAVDGISSSSLNNQIESLNKKLTLFDQLELQKLEKYGGAKGKSDKKTDNGSISIKAKLTECLLANKGKPLNCYEEMEEFKKLVMG
partner: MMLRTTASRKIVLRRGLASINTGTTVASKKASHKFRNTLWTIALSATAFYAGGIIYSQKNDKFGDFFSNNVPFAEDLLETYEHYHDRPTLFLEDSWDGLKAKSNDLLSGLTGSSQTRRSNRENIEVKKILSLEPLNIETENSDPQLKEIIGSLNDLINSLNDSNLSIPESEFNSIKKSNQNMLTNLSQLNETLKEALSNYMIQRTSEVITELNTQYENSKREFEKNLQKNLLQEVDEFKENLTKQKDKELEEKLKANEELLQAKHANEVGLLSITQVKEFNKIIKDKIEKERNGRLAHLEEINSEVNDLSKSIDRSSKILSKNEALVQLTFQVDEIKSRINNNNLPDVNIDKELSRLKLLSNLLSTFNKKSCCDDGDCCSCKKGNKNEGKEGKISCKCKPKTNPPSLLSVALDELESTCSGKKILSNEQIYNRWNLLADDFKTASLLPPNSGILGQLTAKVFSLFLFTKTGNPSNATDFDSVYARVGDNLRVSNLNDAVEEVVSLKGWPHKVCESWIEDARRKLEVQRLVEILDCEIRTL

Variants of: B1
Details: with mic60_yeast MIC60, P36112

| effect of a mutation on the interaction | Variant |
| --- | --- |
| with no effect | MGSNTSKVGAGAEKQQVYTPLTQIDFSQSLVSQLDSSKESDYVTKQNAEKFIEKKVSQRLSNLEVETLKKFEDTLNNSLLSDDDKDAVDGISSSSLNNQIESLNKKLTLFDQLELQKLEKYGGAKGKSDKKTDNGSISIKAKLTESLLANKGKPLNCYEEMEEFKKLVMG [C146S] |
| decreasing interaction strength | MGSNTSKVGAGAEKQQVYTPLTQIDFSQSLVSQLDSSKESDYVTKQNAEKFIEKKVSQRLSNLEVETLKKFEDTLNNSLLSDDDKDAVDGISSSSLNNQIESLNKKLTLFDQLELQKLEKYGGAKGKSDKKTDNGSISIKAKLTECLLANKGKPLNSYEEMEEFKKLVMG [C157S] |
